The values that follow come from patent publication US20230002466A1 (ELPIS BIOPHARMACEUTICALS, published 2023).

Assay [1] has as its target T1, human IL2Rβ (human, UniProt P14784 27-239).
T1 construct: also called IL2β; CD122
T1 sequence (looked up): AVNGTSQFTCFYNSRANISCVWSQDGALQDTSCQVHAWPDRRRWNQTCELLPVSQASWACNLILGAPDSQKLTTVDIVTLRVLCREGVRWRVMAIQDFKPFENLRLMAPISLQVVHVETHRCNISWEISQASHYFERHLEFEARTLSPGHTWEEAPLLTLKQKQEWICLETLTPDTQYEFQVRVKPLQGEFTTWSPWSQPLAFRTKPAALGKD
Kind of assay: SPR, receptor captured on Protein A chip, E. coli-produced IL2. How it is done: (§1) The assay was run with Biacore T200 control software version 2.0. For each cycle, 1 μg/mL of human IL2Rβ or IL2Rα was captured for 60 seconds at flow rate of 10 μL/min on flow cell 2 in 1×HBST buffer on Protein A sensor chip. Two-fold serial diluted HIS tag purified engineered IL2 mutant was injected onto both reference flow cell 1 and IL2Rβ or IL2Rα captured flow cell 2 for 150 seconds at flow rate of 30 μL/min followed by washing for 300 seconds. The flow cells were then regenerated with Glycine pH 2 for 40 seconds at a flow rate of 30 μL/mins. Eight concentration points from 0 to 100 nM were assayed for each IL2Rβ agonist clone 96-well plate format. The kinetics data was analyzed with Biacore T200 evaluation software 3000. The specific binding response unit was derived from subtraction of binding to reference flow cell 1 from target flow cell 2.
In general terms: Surface plasmon resonance follows binding to a sensor surface in real time, without labels.

Assay [2] concerns the target T2, human IL2Rα (human, UniProt P01589 22-213, limits assumed).
T2 construct: also called IL2α; CD25
T2 sequence (looked up): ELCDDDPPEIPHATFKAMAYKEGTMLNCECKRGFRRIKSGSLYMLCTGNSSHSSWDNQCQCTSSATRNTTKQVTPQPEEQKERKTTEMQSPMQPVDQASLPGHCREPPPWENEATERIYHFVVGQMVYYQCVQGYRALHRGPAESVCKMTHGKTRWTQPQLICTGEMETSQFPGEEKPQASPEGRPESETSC
The assay is described as above. How it is done:
as §1

Assay [3] addresses T2, human IL2Rα. Kind of assay: SPR, IL2Rα captured on Protein A chip, IL2 at 100 nM. The procedure: The binding kinetics of IL2Rα-reduced binding clones to IL2Rα was assessed utilizing SPR technology with a Biacore T200, software version 2.0. For each cycle, 1 ug/mL of human IL2Rα was captured for 60 seconds at a flow rate of 10 uL/min on flow cell 2 in 1×HBSP buffer on a Protein A sensor chip. 100 nM of each HIS and Flag tag purified IL2 mutant was injected onto both the reference flow cell 1 and IL2Rα captured flow cell 2 for 150 seconds at a flow rate of 30 uL/min followed by washing for 300 seconds. The flow cells were then regenerated with Glycine pH 2.0 for 60 seconds at a flow rate of 30 uL/min. A HBSP+ buffer was included with each sample as a baseline control. The assay was set up in a 96-well format. The kinetics data was analyzed with Biacore T200 evaluation software 3.0. The specific binding response unit was derived from subtraction of binding to reference flow cell 1 from IL2Rα flow cell 2 and subtraction of buffer control. […] Relative response (RU) was determined for each IL2Rα-reduced binding clone (FIG. 4, Table 3).

Assay [4] addresses T2, human IL2Rα. As to the kind of experiment: IL2Rα binding ELISA with E. coli culture supernatant of the clone; hFc bar as control (Example 2). Background: In an ELISA, binding on a coated surface is turned into a signal by an enzyme label.
Assay [5] addresses T1, human IL2Rβ. As to the kind of experiment: SPR, receptor captured on Protein A chip, mammalian-produced IL2. The procedure:
as §1

Assay [6] addresses T2, human IL2Rα. The description is as above. The procedure:
as §1

A word on the Kd: it is the concentration at which binding is half-saturated. The low end stands for a tighter complex, the high end for a looser complex. The term koff denotes the first-order rate constant of dissociation. What is called kon is the second-order rate constant of association. Read a low kon as slower complex formation.

B1: EP002 (ligand)
chain: APTSSSTKKTQLQLEHLLLDLQMILNGINNYKNPKLTRMLTFKFYMPKKATELKHLQCLEEELKPLEEVLNLAQSKNFHLEPSDVISNINVLVQELKGSETTFMCEYADETATIVEFLNRWITFCQSIISTLT
notes: also called E002; not shown: C-terminal Flag and 6xHis tags
As to B1, in assay [1], the Kd turned out to be 2.37 nM, the koff amounted to 0.00273 s⁻¹, the kon was 1.15e+06 M⁻¹ s⁻¹ and the “relative activity IL2Rβ (KD: fold) against WT IL2” value (“relative activity IL2Rβ (KD: fold)” below) came to 1830 fold. Besides, in assay [2], binding was put at a Kd of 101 nM and the “relative activity IL2Rα (KD: fold) against WT IL2” value (“relative activity IL2Rα (KD: fold)” below) was -10.6 fold.

B2: EP126 (ligand)
chain: APTSSSTKKTQLQLEHLLLDLQMILNGINNYKNPKLTNMLTFKFSMPKKATELKHLQCLEEELKPLEEVLNLAQSKNFHLRPRDLISNINVIVLELKGSETTFMCEYADETATIVEFLNRWITFSQSIISTLT
As for B2, in assay [3], the “RU (at 100 nM)” value stood at 2.6 RU and the “Relevant binding to WT IL2 (%)” value was determined as 1.83%. In addition, in assay [4], the binding result is listed as “no binding (tested: supernatant, concentration not given)”.

B3: EP122 (ligand)
chain: APTSSSTKKTQLQLEHLLLDLQMILNGINNYKNPKLTVMLTFKFPMPKKATELKHLQCLEEELKPLEEVLNLAQSKNFHLRPRDLISNINVIVLELKGSETTFMCEYADETATIVEFLNRWITFSQSIISTLT
Take B3: in assay [3], the “RU (at 100 nM)” value is 2.5 RU and the “Relevant binding to WT IL2 (%)” value came to 1.76%. Further, in assay [4], the binding result was “no binding (tested: supernatant, concentration not given)”.

B4: EP115 (ligand)
chain: APTSSSTKKTQLQLEHLLLDLQMILNGLNNYKNPKLTSMLTFKFSMPKKATELKHLQCLEEELKPLEEVLNLAQSKNFHLRPRDLISNINVIVLELKGSETTFMCEYADETATIVEFLNRWITFSQSIISTLT
In the case of B4, in assay [3], the “RU (at 100 nM)” value amounted to 2.4 RU and the “Relevant binding to WT IL2 (%)” value worked out at 1.69%. The binding result in assay [4] is on record as “no binding (tested: supernatant, concentration not given)”.

B5: EP108 (ligand)
chain: APTSSSTKKTQLQLEHLLLDLQMILNGINNYKNPKLTRMLTHKFVMPKKATELKHLQCLEEELKPLEEVLNLAQSKNFHLRPRDLISNINVIVLELKGSETTFMCEYADETATIVEFLNRWITFSQSIISTLT
B5: in assay [3], the “RU (at 100 nM)” value is 2.4 RU and the “Relevant binding to WT IL2 (%)” value was 1.69%. Further, the binding result in assay [4] was “no binding (tested: supernatant, concentration not given)”.

B6: EP005 (ligand)
chain: APTSSSTKKTQLQLEHLLLDLQMILNGINNYKNPKLTRMLTFKFYMPKKATELKHLQCLEEELKPLEEVLNLAQSKNFHLTAEDVVTNITVLVQELKGSETTFMCEYADETATIVEFLNRWITFCQSIISTLT
notes: not shown: C-terminal Flag and 6xHis tags
On to B6, for which, in assay [1], the affinity, expressed as Kd, was 0.885 nM; the koff was determined as 0.0054 s⁻¹; the kon came to 6.1e+06 M⁻¹ s⁻¹; the “relative activity IL2Rβ (KD: fold)” value stood at 4910 fold. In addition, in assay [2], the Kd was 12.6 nM and the “relative activity IL2Rα (KD: fold)” value was -1.3 fold.

B7: EP119 (ligand)
chain: APTSSSTKKTQLQLEHLLLDLQMILNGINNYKNPKLTGMLTFKFSMPKKATELKHLQCLEEELKPLEEVLNLAQSKNFHLRPRDLISNINVIVLELKGSETTFMCEYADETATIVEFLNRWITFSQSIISTLT
As to B7, in assay [3], the “RU (at 100 nM)” value worked out at 2.7 RU and the “Relevant binding to WT IL2 (%)” value was determined as 1.9%. In assay [4], the binding result is given as “no binding (tested: supernatant, concentration not given)”.

B8: EP004 (ligand)
chain: APTSSSTKKTQLQLEHLLLDLQMILNGINNYKNPKLTRMLTFKFYMPKKATELKHLQCLEEELKPLEEVLNLAQSKNFHLCPTDTIENITVLIQELKGSETTFMCEYADETATIVEFLNRWITFCQSIISTLT
notes: Produced in E. coli or mammalian cells; not shown: C-terminal Flag and 6xHis tags
B8: in assay [1], binding was characterised by a dissociation constant (Kd) of 0.62 nM, the koff turned out to be 0.00189 s⁻¹, the kon was determined as 3.05e+06 M⁻¹ s⁻¹ and the “relative activity IL2Rβ (KD: fold)” value came to 7010 fold. In addition, in assay [2], the Kd is 40.5 nM and the “relative activity IL2Rα (KD: fold)” value was -4.3 fold. Further, in assay [5], the Kd is 0.414 nM, the koff turned out to be 0.00215 s⁻¹, the kon was found to be 5.18e+06 M⁻¹ s⁻¹ and the “relative activity IL2Rβ (KD: fold)” value worked out at 2420 fold. In assay [6], the affinity, expressed as Kd, was 28.8 nM and the “relative activity IL2Rα (KD: fold)” value is -2.1 fold.

B9: EP113 (ligand)
chain: APTSSSTKKTQLQLEHLLLDLQMILNGINNYKNPKLTYMLTRKFYMPKKATELKHLQCLEEELKPLEEVLNLAQSKNFHLRPRDLISNINVIVLELKGSETTFMCEYADETATIVEFLNRWITFSQSIISTLT
Regarding B9, in assay [3], the “RU (at 100 nM)” value was 2.6 RU and the “Relevant binding to WT IL2 (%)” value is 1.83%. Besides, the binding result in assay [4] is “no binding (tested: supernatant, concentration not given)”.

B10: EP006 (ligand)
chain: APTSSSTKKTQLQLEHLLLDLQMILNGINNYKNPKLTRMLTFKFYMPKKATELKHLQCLEEELKPLEEVLNLAQSKNFHLGVGDTIDNINVLVKELKGSETTFMCEYADETATIVEFLNRWITFCQSIISTLT
notes: also called EPIM-06; not shown: C-terminal Flag and 6xHis tags
As for B10, in assay [1], the Kd was found to be 3.1 nM, the koff is 0.00254 s⁻¹, the kon is 819000 M⁻¹ s⁻¹ and the “relative activity IL2Rβ (KD: fold)” value was determined as 1400 fold. Moreover, in assay [2], binding was put at a Kd of 481 nM and the “relative activity IL2Rα (KD: fold)” value is -50.6 fold.

B11: EP105 (ligand)
chain: APTSSSTKKTQLQLEHLLLDLQMILNGINNYKNPELTIMLTPKFYMPKKATELKHLQCLEEELKPLEEVLNLAQSKNFHLRPRDLISNINVIVLELKGSETTFMCEYADETATIVEFLNRWITFSQSIISTLT
As for B11, in assay [3], the “RU (at 100 nM)” value is 2.1 RU and the “Relevant binding to WT IL2 (%)” value is 1.48%. In assay [4], the binding result was “no binding (tested: supernatant, concentration not given)”.

B12: EP123 (ligand)
chain: APTSSSTKKTQLQLEHLLLDLQMILNGINNYKNPKLTVMLTFKFFMPKKATELKHLQCLEEELKPLEEVLNLAQSKNFHLRPRDLISNINVIVLELKGSETTFMCEYADETATIVEFLNRWITFSQSIISTLT
Consider B12, for which, in assay [3], the “RU (at 100 nM)” value came out at 5.3 RU and the “Relevant binding to WT IL2 (%)” value was determined as 3.73%. For the same molecule, the binding result in assay [4] is given as “no binding (tested: supernatant, concentration not given)”.

B13: EP226 (ligand)
chain: APTSSSTKKTQLQLEHLLLDLQMILNGINNYKNPKLTRMLTAKFYMPKKATELKHLQCLEEELKPLEEVLNLAQSKNFHLGVTDSISNAIVLARELKGSETTFMCEYADETATIVEFLNRWITFSQSIISTLTGSHHHHHH
As to B13, in assay [3], the “RU (at 100 nM)” value came out at 3 RU and the “Relevant binding to WT IL2 (%)” value stood at 2.11%. Besides, the binding result in assay [4] is “no binding (tested: supernatant, concentration not given)”.
